Sequences and labels used below:
B1: Hairpin Ribozyme (parent)
chain: GUCCUCUUUCACGUGCGCGUGAAAGAGAGAAGUGAACCAGAGAAACACACGUUGUGGUAUAUUACCUGGUA

Variants of B1 are the subject of the series. Put plainly: self-cleavage, relative activity (ratio to wild type); higher = more cleavage; co-transcriptional.
For GUCCUCUUUCACGUGCGCGUGAAAGAGAGAACUGAACCAGAGAAACACACGUUGUGGUAUAUUACCUAGUA [G32C G68A], the self-cleavage turned out to be 0.097.

GUCCUCUUUCACGUGCGCGUGAAAGAGAGAACUGAACCAGAGAAACACACGAUGUGGUAUAUUACCUGGUA [G32C U52A]: the self-cleavage is 0.0962.

On to GUCCUCUUUCACGUGCGCGUGAAAGAGAGAAUUGAACCAGAGAAACACACGUUGUGGUAUCUUACCUGGUA [G32U A61C], for which the self-cleavage is 0.157.

Regarding GUCCUCUUUCACGUGCGCGUGAAAGAGAGAAUUGAACCAGAGAAACACACGUUGUGGUAUAUUACCUGCUA [G32U G69C], the self-cleavage is 0.136.

GUCCUCUUUCACGUGCGCGUGAAAGAGAGAAUUGAACCAGAGAAACACACGUUGUUGUAUAUUACCUGGUA [G32U G56U]: the self-cleavage came to 0.145.

As for GUCCUCUUUCACGUGCGCGUGAAAGAGAGAACUGAACCAGAGAAACACACGUUGUGGGAUAUUACCUGGUA [G32C U58G], the self-cleavage is 0.0601.

For the variant GUCCUCUUUCACGUGCGCGUGAAAGAGAGAACUGAACAAGAGAAACACACGUUGUGGUAUAUUACCUGGUA [G32C C38A], the self-cleavage was 0.061.

Regarding GUCCUCUUUCACGUGCGCGUGAAAGAGAGAACUGAACCAGAGAAACACACGUUGUGGUGUAUUACCUGGUA [G32C A59G], the self-cleavage was 0.15.

Turning to GUCCUCUUUCACGUGCGCGUGAAAGAGAGAACUGAACCAGAGAAACACACGUUGUGGUUUAUUACCUGGUA [G32C A59U], the self-cleavage came out at 0.103.

As to GUCCUCUUUCACGUGCGCGUGAAAGAGAGAACUGAACCACAGAAACACACGUUGUGGUAUAUUACCUGGUA [G32C G40C], the self-cleavage was found to be 0.109.

Consider GUCCUCUUUCACGUGCGCGUGAAAGAGAGAACUGAACCGGAGAAACACACGUUGUGGUAUAUUACCUGGUA [G32C A39G], for which the self-cleavage came out at 0.111.

As to GUCCUCUUUCACGUGCGCGUGAAAGAGAGAAUUGAACCAGAGAAACACACGUUGUGGUAUAUUACAUGGUA [G32U C66A], the self-cleavage stood at 0.229.

Turning to GUCCUCUUUCACGUGCGCGUGAAAGAGAGAAUUGAACCAGAGAAAUACACGUUGUGGUAUAUUACCUGGUA [G32U C46U], the self-cleavage worked out at 0.276.

For GUCCUCUUUCACGUGCGCGUGAAAGAGAGAAUUGAACCAGAGAAACACACGUUGUGGUAUAUUACCUGGUU [G32U A71U], the self-cleavage was 0.131.

For GUCCUCUUUCACGUGCGCGUGAAAGAGAGAAUUGAACCAGAGAAACACACGUUGUGGAAUAUUACCUGGUA [G32U U58A], the self-cleavage was 0.0967.

On to GUCCUCUUUCACGUGCGCGUGAAAGAGAGAACUGAACCAGAGAAACACACGUUGUGGUAUAUUAACUGGUA [G32C C65A], for which the self-cleavage was 0.0926.

Turning to GUCCUCUUUCACGUGCGCGUGAAAGAGAGAACUGACCCAGAGAAACACACGUUGUGGUAUAUUACCUGGUA [G32C A36C], the self-cleavage stood at 0.159.

Turning to GUCCUCUUUCACGUGCGCGUGAAAGAGAGAACUGAACCAGAGAAACCCACGUUGUGGUAUAUUACCUGGUA [G32C A47C], the self-cleavage is 0.161.

In the case of GUCCUCUUUCACGUGCGCGUGAAAGAGAGAACUGAACCAGAGAAACACACGUUGUGGUAUAUUACCAGGUA [G32C U67A], the self-cleavage worked out at 0.134.

GUCCUCUUUCACGUGCGCGUGAAAGAGAGAACUGAACCAGAGAAACACACGUUGUGGUAUAUUACCGGGUA [G32C U67G]: the self-cleavage came to 0.148.

For the variant GUCCUCUUUCACGUGCGCGUGAAAGAGAGAACUGAACCAGAGAAACACACGUUGUGGUAUCUUACCUGGUA [G32C A61C], the self-cleavage is 0.222.

With GUCCUCUUUCACGUGCGCGUGAAAGAGAGAAUUGAACCAGAGAAACACACGUUGUGGUAGAUUACCUGGUA [G32U U60G], the self-cleavage was 0.0848.

Turning to GUCCUCUUUCACGUGCGCGUGAAAGAGAGAACAGAACCAGAGAAACACACGUUGUGGUAUAUUACCUGGUA [G32C U33A], the self-cleavage came out at 0.168.

For the variant GUCCUCUUUCACGUGCGCGUGAAAGAGAGAAAUGAACCAGAGAAACACACGUUGUGGUAUAGUACCUGGUA [G32A U62G], the self-cleavage came to 0.0972.

With GUCCUCUUUCACGUGCGCGUGAAAGAGAGAACUGAACCAGGGAAACACACGUUGUGGUAUAUUACCUGGUA [G32C A41G], the self-cleavage was 0.128.

Consider GUCCUCUUUCACGUGCGCGUGAAAGAGAGAAAUGAACCAGAGAAACACACGUUGUGGUAUAUGACCUGGUA [G32A U63G], for which the self-cleavage is 0.126.

For the variant GUCCUCUUUCACGUGCGCGUGAAAGAGAGAAUUGAAGCAGAGAAACACACGUUGUGGUAUAUUACCUGGUA [G32U C37G], the self-cleavage was determined as 0.0126.

As to GUCCUCUUUCACGUGCGCGUGAAAGAGAGAAUUGAACCAGUGAAACACACGUUGUGGUAUAUUACCUGGUA [G32U A41U], the self-cleavage was determined as 0.0937.

As to GUCCUCUUUCACGUGCGCGUGAAAGAGAGAAUUGAACCAGCGAAACACACGUUGUGGUAUAUUACCUGGUA [G32U A41C], the self-cleavage came out at 0.105.

With GUCCUCUUUCACGUGCGCGUGAAAGAGAGAACUGAACCAGAGAUACACACGUUGUGGUAUAUUACCUGGUA [G32C A44U], the self-cleavage was 0.22.

As to GUCCUCUUUCACGUGCGCGUGAAAGAGAGAACUGAACCAGAGACACACACGUUGUGGUAUAUUACCUGGUA [G32C A44C], the self-cleavage is 0.108.

As to GUCCUCUUUCACGUGCGCGUGAAAGAGAGAACUGUACCAGAGAAACACACGUUGUGGUAUAUUACCUGGUA [G32C A35U], the self-cleavage worked out at 0.132.

For the variant GUCCUCUUUCACGUGCGCGUGAAAGAGAGAACUGAACCAGAGAAACACACGUUGUGGUAAAUUACCUGGUA [G32C U60A], the self-cleavage stood at 0.203.

With GUCCUCUUUCACGUGCGCGUGAAAGAGAGAACUGAACCAGAGAAACACACGUUGUGGUAGAUUACCUGGUA [G32C U60G], the self-cleavage was found to be 0.112.

With GUCCUCUUUCACGUGCGCGUGAAAGAGAGAACUAAACCAGAGAAACACACGUUGUGGUAUAUUACCUGGUA [G32C G34A], the self-cleavage came to 0.132.

As to GUCCUCUUUCACGUGCGCGUGAAAGAGAGAAUUGAACCAGAGAAACACACGUUGUGUUAUAUUACCUGGUA [G32U G57U], the self-cleavage worked out at 0.162.

For GUCCUCUUUCACGUGCGCGUGAAAGAGAGAAUUGAACCAGACAAACACACGUUGUGGUAUAUUACCUGGUA [G32U G42C], the self-cleavage was determined as 0.127.

Turning to GUCCUCUUUCACGUGCGCGUGAAAGAGAGAAUUGAACCAGAUAAACACACGUUGUGGUAUAUUACCUGGUA [G32U G42U], the self-cleavage was 0.107.

(Values after the RNAGym collection of RNA variant scans (doi:10.7554/elife.80360).)
